Measurements taken from the DeepSol protein solubility set.

Assay: soluble on expression in E. coli; label from the status in PepcDB or PDB records

Row | Sequence | soluble on expression in E. coli
1 | MHAIDFKEIQEKLSDGFRPWQRSFQFWARATDIYTGYKVFQLRMNFVKDVNKHEEMWERQHELAAHKVYSMCSDLGGFFLKIAQILGKPDLAPAAWVRKLVTLCDQAPATPFDAVRVVLEKELGKSIEQVFETFDEKPLGSASIAQVQHPGVEKLMMVDIRNLQIFALYMQKTDIKFDLFSMTKEIEKQIGYEFDFKREANAMEKIRRFLYDNNRKSPVLVPRVFPNLVTRKVLVMEFMNGIPILSLGDEMAKRGINPHGKMAEAAKFNILHSLSQAYGQMILKSGFFHADPHPGNILIGKGSEASHLLELGIATVAKCKNEQQELLQLAKTMFDTEMPPGTTTLQPFSEDSSIKKISVEAFPEELFSVLRTVVLLRGLSVGIGINYSCAQHWRAMAEEALHASGRLSTG | soluble
2 | MSESLTWHDVIGNEKQQAYFQQTLQFVESQRQAGKVIYPPAKDVFNAFRFTEFGDVKVVILGQDPYHGPNQAHGLCFSVLPGVKTPPSLVNIYKELAQDIPGFQIPPHGYLQSWAQQGVLLLNTVLTVEQGMAHSHANTGWETFTDRVIDALNQHRNGLIFLLWGSHAQKKGQMIDRQRHHVLMAPHPSPLSAHRGFLGCRHFSKTNQLLQAQGIAPINWQPELES | soluble
3 | MAMDNQGWFSNETATFGDRLAGAREAAGLTQEEMARRLGVRLKTLQSWEDDLAEPRANRLQMMAGMLNVSLRWLLTGEGEGAEGPSEPAILTSEGREALAELARMRTQMLALAQEMGQLEKRMRALLRKEAE | not soluble
4 | MGMAAESQFHVLAVDDSLFDRKLIERLLQKSSCQVTTVDSGSKALEFLGLRQSTDSNDPNAFSKAPVNHQVVEVNLIITDYCMPGMTGYDLLKKVKESSAFRDIPVVIMSSENVPARISRCLEEGAEEFFLKPVRLADLNKLKPHMMKTKLKNQKLEEIETTSKVENGVPTAVADPEIKDSTNIEIEILPLQQDLLLVQQEEQTLSINNKRKSVEEGISTDRARPRFDGIATAV | not soluble
5 | INMEEIREFAKNFKIRRLSLGLTQTQVGQAMTATEGPAYSQSAISRFEKLDITPKSAQKLKPVLEKWLNEAELRNQEGQQNLMEFVGGEPSKKRKRRTSFTPQAIEALNAYFEKNPLPTGQEITEMAKELNYDREVVRVWFSNRRQTLKNT | soluble
6 | NDVKRALEVEEINKLLNEVPLKRLPEDLVRCRVWANLMFQLRGMPFVDLAFLHKSDLKGNTLSYRRHKTGGQMIVDIPPTAMELIRQYQNTDCNSPYLFPILSGTKTGEELYIEYQQALRIMNYNLGRLARRCGVITKVSSYTTRHTWATLAKYCNFSEQLICEAFGHSSVKVTETYLKNFKYEEIKKANDAI | not soluble
7 | SDPDADRVGIACKNDKGEWVLINGNQTCLMYLYYIITQYNKLGKMTGNEFCVKTIVTTELIKKIADKNHIEMLDCYTGFKWIAREIRLREGKKKYIGGGEESYGFLAEDFVRDKDAVSACCLIAEVAAWAKDNGKTLYQLLMDIYVEYGFSKE | not soluble
8 | MFIQTEPTPNPATLKFIPGRSVLDSGTLEFTDASQAARSPLAARLFDIDGVSGVFYGTDFVTVTKDKGEWQHLKPAILGAIMEHYMSGTPILADGKSDGEDGDDDEFYADADAETVEIIKDLIETRVRPAVANDGGDITFRGFKDGIVYLNMRGACAGCPSSTATLQHGIQNLLKHFVPEVVEVRPVT | not soluble
9 | MTIKYLTKNDVLAACIGGSVYASGGGGFYEHGLEMGEAAVALSPVVLKTIDEFEEDDLIITQTAIGAPAGTTDWQMLGKDYIRAVELLLEKHPHPEKIKGILTPQNGKSSSTNGWLSASALGLAVVHATGDIRAHPTGKMGNMGVANDTTYETIQAVSGGRRETGRHIELSVQGTAAYTSKILRIASDLSGGFIAAARHPLTASYIKQNAVIGGLSKAIELGYCILEHQNEDGSSIIDAIVKHTHGEILAKGKVVAKDMTYTDEAFDVGKVKIKTESDNVTLHVQNEFMAVDSQALGRVATYPDVITLFRAKDAKALSTDEISIDEEVVVFKISHKHFPLSTGVKDPSVYPEVENVLGIDLYRHAFKLEHHHHHH | soluble
10 | MRSTKVIHIVGCHAEGEVGDVIVGGVAPPPGETVWEQSRFIANDETLRNFVLNKPRGGVFRHVNLLVPPKDPRAQMGFIIMEPADTPPMSGSNSICVSTVLLDSGIIAMQEPVTHMVLEAPGGIIEVEAECRNGKAERISVRNVPSFADRLDAPLDVTGLGTIMVDTAYGGDSFVIVDAAQIGMKIEPGQARELAEIGVKITKAANEQLGFRHPERDWRHISFCQITEPVTREGDVLTGVNTVAIRPAKFDRSPTGTGCSARMAVLHAKGQMKAGERFIGKSVLGTEFHCRLDKVLELGGKPAISPIISGRAWVTGTSQLMLDPSDPFPHGYRLSDTWPRDELEHHHHHH | soluble
